Assays:
[1] = Pyrogen test by injection into rabbits; type: in vivo; conditions: final product, three times the patient dose
Method: (§1) Samples at each purification stage were analysed for endotoxin levels using Limulus ameobocyte lysate (LAL) gel clot vials (Atlas bioscan. Bognor Regis, UK) according to the manufacturers' recommended instructions; a further aliquot (three times the patient dose) was tested by injection into rabbits (Safepharm Laboratories; Derby, UK) Bacterial supernatant containing MFE-23 His, semipurified MFE-23 His and the final product were tested for the presence of bacterial DNA using the Digoxigenin (DIG) DNA labelling and detection assay (Boeringer Mannheim, Lewes, UK). A probe was constructed using a mixture of equal proportions of MFE-23 plasmid DNA and total bacterial DNA. DIG labelled DNA probes were detected after hybridisation. to target samples by enzyme-linked immunoassay using an anti-DIG alkaline phosphatase conjugate. The probe was sensitive to 12 pg of DNA. […] Stability of the antibody was assessed by storing aliquots at 4° C. and -70° C. and subsequently analysing samples at certain time intervals using a Superose 12 HR 10/30 (Pharmacia) FPLC column. Retention of antigen binding following 6 months storage at 4° C. was measured by applying a known amount of purified antibody to the CEA affinity column (refer to section 2.7) and quantitating the % bound (specific activity). […]

[2] = Storage stability by FPLC (Superose 12); type: physicochemical; conditions: 4° C. and -70° C. up to 6 months
Method: as §1

[3] = molecular target: T1, CEA (Homo sapiens, UniProt P06731); assay: Retention of antigen binding on storage (CEA affinity column, specific activity); set-up: CEA was obtained from a patient's colorectal tumour liver metastasis by extraction using perchloric acid; from tissue; host or cells: patient's colorectal tumour liver metastasis, perchloric acid extract
T1 sequence (P06731 35-702): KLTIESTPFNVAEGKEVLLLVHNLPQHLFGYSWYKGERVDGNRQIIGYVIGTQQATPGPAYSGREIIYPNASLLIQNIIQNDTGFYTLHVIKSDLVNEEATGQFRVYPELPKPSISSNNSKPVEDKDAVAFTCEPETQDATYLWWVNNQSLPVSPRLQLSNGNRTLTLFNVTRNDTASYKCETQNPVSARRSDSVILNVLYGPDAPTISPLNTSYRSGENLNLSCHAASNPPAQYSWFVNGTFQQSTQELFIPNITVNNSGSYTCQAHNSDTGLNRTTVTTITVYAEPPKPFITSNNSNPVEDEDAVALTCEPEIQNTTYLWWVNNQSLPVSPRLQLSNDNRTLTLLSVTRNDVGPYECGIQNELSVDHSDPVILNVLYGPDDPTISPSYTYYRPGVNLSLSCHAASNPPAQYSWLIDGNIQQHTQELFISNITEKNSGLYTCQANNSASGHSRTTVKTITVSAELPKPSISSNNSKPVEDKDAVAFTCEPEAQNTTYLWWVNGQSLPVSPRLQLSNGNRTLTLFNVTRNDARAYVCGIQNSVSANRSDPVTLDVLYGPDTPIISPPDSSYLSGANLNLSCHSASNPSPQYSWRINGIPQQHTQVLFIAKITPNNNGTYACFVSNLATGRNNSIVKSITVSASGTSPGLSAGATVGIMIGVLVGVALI
Method: 2 liters of MFE-23 His which had been concentrated and dialysed in PBS (400 ml) was purified using a 6 ml cyanogen bromide activated Sepharose 4B (Pharmacia Biotech.) affinity column coupled to CEA (8 mg). CEA was obtained from a patient's colorectal tumour liver metastasis by extraction using perchloric acid^34. One column pass of 30 ml supernatant per run was performed.
Samples at each purification stage were analysed for endotoxin levels using Limulus ameobocyte lysate (LAL) gel clot vials (Atlas bioscan. Bognor Regis, UK) according to the manufacturers' recommended instructions; a further aliquot (three times the patient dose) was tested by injection into rabbits (Safepharm Laboratories; Derby, UK) Bacterial supernatant containing MFE-23 His, semipurified MFE-23 His and the final product were tested for the presence of bacterial DNA using the Digoxigenin (DIG) DNA labelling and detection assay (Boeringer Mannheim, Lewes, UK). A probe was constructed using a mixture of equal proportions of MFE-23 plasmid DNA and total bacterial DNA. DIG labelled DNA probes were detected after hybridisation. to target samples by enzyme-linked immunoassay using an anti-DIG alkaline phosphatase conjugate. The probe was sensitive to 12 pg of DNA. The final product was also assayed for Cu^2+ content and compared with earlier purification stages, using flame photometry (Trace Element laboratory-University of Surrey). An aliquot was also protein sequenced using amino acid analysis by the CRC protein sequencing facility (University college of London) to confirm homogeneity of the final product and cleavage of the pelB leader sequence in the periplasm. Stability of the antibody was assessed by storing aliquots at 4° C. and -70° C. and subsequently analysing samples at certain time intervals using a Superose 12 HR 10/30 (Pharmacia) FPLC column. Retention of antigen binding following 6 months storage at 4° C. was measured by applying a known amount of purified antibody to the CEA affinity column (refer to section 2.7) and quantitating the % bound (specific activity). These values were compared by applying a known amount of MFE-23 His previously purified using the same column.

[4] = molecular target: T1, CEA; assay: CEA binding of radiolabelled product on CEA/Sepharose column
Method: 75 μg of A5-SC and MFE-23 were iodinated with 0.5 mCi of 125-I using the Chloramine T/L-Tyrosine method^20. […] The stability of the radiolabelled products was tested by gel filtration on S-100.
MFE-cys was radiolabelled with ^99m Tc using a ^99m Tc-D-glucarate transfer method^22. 1 ml of ^99m Tc sodium pertechnetate (40.5 mCi) was added to 12.5 mg of monopotassium D-glucarate, 16.8 mg of sodium bicarbonate and 100 μg of stannous chloride (stannous chloride was made up directly before use at a concentration of 0.2 mg/ml). This solution was left for 1 min at room temperature. Then 0.5 ml was mixed with 200 μg MFE-cys in PBS/1 mM EDTA. The mixture was incubated at room temperature for 30 min and then applied to a PD 10 column (Pharmacia; primed with 3% human serum albumin in PBS) to separate the radiolabelled protein from the free pertechnetate. The efficiency of ^99m Tc uptake was tested by thin layer chromatography, using acetonitrile/water (30:20) as running solvent. An aliquot (100 μl) of diluted radiolabelled scFv (1:30 in PBS/Tween 20) was applied to a 1 ml CEA-sepharose column, containing 1 mg of CEA, to test CEA-binding. The column was washed with 8 volumes of PBS/0.05% Tween 20 and bound material was obtained by adding 3M ammoniumthiocyanate. Further, the stability of the labelled scFv was tested by applying the product (diluted 1:30) to Sephacryl S-100. To test the stability of the radiolabelled product in vivo serum taken from mice injected with the labelled scFv 24 h after administration was also applied to Sephacryl S-100. Stability of the ^99m Tc-labelled product was also tested by gel autoradiography as follows: radiolabelled MFE-cys was subjected to SDS-PAGE using a 15% non-reducing acrylamide gel. The protein was then Western blotted onto Immobilon P (Millipore), and visualised by autoradiography using Kodak X-Omatic cassette and Hyperfilm-MP film (Amersham).
Thin layer chromatography (TLC) was performed to measure % ^125 I incorporation. Antigen binding was also assessed by applying a dilution of the radiolabel to a CEA coupled Sepharose 4B (1 mg CEA; 1 ml column volume). The unbound fraction was washed through with 2 column volumes of PBS and the bound fraction with the same volume of 3M ammonium thiocyanate. A control scFv B1.8 which is not specific for CEA and MFE-23 containing a c-myc tag (MFE-23 myc) were tested as a comparison. The unbound and bound fractions were analysed for ^125 I activity using a gamma counter. Stability assessments were carried out by applying a sample of the radiolabel and unlabelled product to a 15% SDS PAGE minigel. The ^125 I-MFE-23 His was visualised by autoradiography and the unlabelled product by Coomassie blue staining. ^125 I-MFE-23 His was also applied to a 100 ml Sephacryl S-100 column (115×1 cm). 1.5 ml fractions were collected and counted for ^125 I activity.

[5] = Stability of radiolabelled product by gel filtration on S-100 / SDS PAGE; type: physicochemical; conditions: 125I label, SDS PAGE and gel filtration

B1: MFE-23 His: MFE-23 scFv with hexa-histidine tail at the C-terminus, clinical grade (protein)
scFv: QVKLQQSGAELVRSGTSVKLSCTASGFNIKDSYMHWLRQGPEQGLEWIGWIDPENGDTEYAPKFQGKATFTTDTSSNTAYLQLSSLTSEDTAVYYCNEGTPTGPYYFDYWGQGTTVTVSSGGGGSGGGGSGGGGSENVLTQSPAIMSASPGEKVTITCSASSSVSYMHWFQQKPGTSPKLWIYSTSNLASGVPARFSGSGSGTSYSLTISRMEAEDAATYYCQQRSSYPLTFGAGTKLELK
- pyrogenicity by in vivo rabbit testing [1]: non pyrogenic
- stability on storage, FPLC analysis [2]: no evidence of aggregation
- antigen binding retained after storage ([3]; 6 months storage at 4° C.): 84%
- Specific activity (% bound to CEA column) ([3]; CEA antigen affinity chromatography purified (d), 1 mg applied to column): 89%
- Specific activity (% bound to CEA column) ([3]; IMAC purified (a), 2 mg applied to column, 6 months storage at 4° C.): 69%
- Specific activity (% bound to CEA column) ([3]; IMAC purified (b), 1 mg applied to column, 6 months storage at 4° C.): 75%
- Specific activity (% bound to CEA column) ([3]; IMAC purified (c), 0.5 mg applied to column, 6 months storage at 4° C.): 81%
- mean % bound specific activity ([3]; IMAC purified material (a-c)): 75%
- counts in bound fraction of CEA column, % of total counts recovered ([4]; 125I radiolabelled, Example 5): 75%
- counts in unbound fraction of CEA column, % of total counts recovered ([4]; 125I radiolabelled, Example 5): 25%
- further counts recovered in bound fraction on reapplying the unbound fraction ([4]; % of total counts loaded, unbound fraction reapplied to CEA column): 58%
- antigen binding retained after radiolabelling ([4]; after radiolabelling (125I)): > 75%
- stability of radiolabelled product [5]: monomeric, intact and unaggregated

Reference: patent US5876691A, “Antibody against carcionembryonic antigen (CEA)” (Cancer Research Campaign Technology Limited, priority 1993, dated 1999)
